# Test results published in US20250215104A1 (WALDEN BIOSCIENCES, published 2025).
# Experiments:
# [1] = target: T1, human soluble urokinase plasminogen activator receptor (hsuPAR) (human, UniProt Q03405 23-303, limits assumed); assay: off-rate screen of scFv clones (kdis), Octet BLI
# T1 construct: also called human suPAR; rhuPAR-His
# [2] = target: T2, cynomolgus soluble urokinase plasminogen activator receptor (cynomolgus suPAR) (cynomolgus, UniProt Q9GK78 23-303, limits assumed); assay: off-rate screen of scFv clones (kdis), Octet BLI
# T2 construct: also called cynomolgus uPAR; cynoPLAUR-His
# T2 sequence (Q9GK78 23-303 limits assumed): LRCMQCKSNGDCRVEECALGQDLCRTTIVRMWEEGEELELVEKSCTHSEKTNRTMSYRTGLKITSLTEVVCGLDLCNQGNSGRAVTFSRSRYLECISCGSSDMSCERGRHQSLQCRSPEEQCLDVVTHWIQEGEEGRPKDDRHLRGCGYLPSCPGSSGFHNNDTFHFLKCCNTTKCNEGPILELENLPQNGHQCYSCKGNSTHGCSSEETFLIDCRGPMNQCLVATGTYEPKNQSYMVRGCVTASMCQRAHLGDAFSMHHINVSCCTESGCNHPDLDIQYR
# T1 sequence (Q03405 23-303 limits assumed): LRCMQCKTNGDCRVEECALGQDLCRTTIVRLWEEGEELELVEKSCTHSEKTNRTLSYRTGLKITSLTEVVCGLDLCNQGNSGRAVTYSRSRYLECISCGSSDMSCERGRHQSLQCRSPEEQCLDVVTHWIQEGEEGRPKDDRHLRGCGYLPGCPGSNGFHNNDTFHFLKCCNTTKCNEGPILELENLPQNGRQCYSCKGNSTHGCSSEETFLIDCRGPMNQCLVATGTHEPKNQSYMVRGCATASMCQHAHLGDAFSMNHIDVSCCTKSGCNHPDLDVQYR
Binder,koff [1] [s⁻¹],koff [2] [s⁻¹]
"suPAR_DB04_C09 (scFv, V domains shown, scFv clone from phage display) VH: QVQLVQSGAEVKKPGASVKVSCKASGYTFSTYYMQWVRQAPGQGLEWMGWIDPENGSTIYDQKFQGRVTMTRDTSTSTVYMELSSLRSEDTAVYYCARGYDVDWFVYWGQGTLVTVSS VL: DIQMTQSPSSLSASVGDRVTITCSARSSVSYMYWYQQKPGKAPKLLIYRASNLASGVPSRFSGSGSGTDFTLTISSLQPEDFATYYCQQYHSYPPTFGGGTKVEIK",0.0013,0.00154
"suPAR_DB04_E07 (scFv, V domains shown, scFv clone from phage display) VH: QVQLVQSGAEVKKPGASVKVSCKASGDTFTSYYIHWVRQAPGQGLEWMGWIDHENGNTIYDQKFQGRVTMTRDTSTSTVYMELSSLRSEDTAVYYCARGYDVDWFVYWGQGTLVTVSS VL: DIQMTQSPSSLSASVGDRVTITCSARSSVSYMYWYQQKPGKAPKLLIYRTSNLASGVPSRFSGSGSGTDFTLTISSLQPEDFATYYCQQYHSYPPTFGGGTKVEIK",0.00311,0.00023
"suPAR_DB04_C12 (scFv, V domains shown, scFv clone from phage display) VH: QVQLVQSGAEVKKPGASVKVSCKASGHTITSYYMHWVRQAPGQGLEWMGWIDHENGSTIYAQKFQGRVTMTRDTSTSTVYMELSSLRSEDTAVYYCARGYDVDWFVYWGQGTLVTVSS VL: DIQMTQSPSSLSASVGDRVTITCRASSSVSYMYWYQQKPGKAPKLLIYRTSNLASGVPSRFSGSGSGTDFTLTISSLQPEDFATYYCQQYHSYPPTFGGGTKVEIK",0.000626,0.000255
"suPAR_DB04_D03 (scFv, V domains shown, scFv clone from phage display) VH: QVQLVQSGAEVKKPGASVKVSCKASGYTFTSYYMHWVRQAPGQGLEWMGWIDPENGSTIYDQKFQGRVTMTRDTSTSTVYMELSSLRSEDTAVYYCARGYDVDWFVYWGQGTLVTVSS VL: DIQMTQSPSSLSASVGDRVTITCRARQSVSYMYWYQQKPGKAPKLLIYRTSNLASGVPSRFSGSGSGTDFTLTISSLQPEDFATYYCQQYHSYPPTFGGGTKVEIK",0.00408,0.000353
"suPAR_DB04_C11 (scFv, V domains shown, scFv clone from phage display) VH: QVQLVQSGAEVKKPGASVKVSCKASGYSFTDYYMHWVRQAPGQGLEWMGWIDPENGSTIYDQKFQGRVTMTRDTSTSTVYMELSSLRSEDTAVYYCARGYDVDWFVYWGQGTLVTVSS VL: DIQMTQSPSSLSASVGDRVTITCSARSSVSYMYWYQQKPGKAPKLLIYRTSNLASGVPSRFSGSGSGTDFTLTISSLQPEDFATYYCQQYHSYPPTFGGGTKVEIK",0.00562,0.000483
"suPAR_DB04_D08 (scFv, V domains shown, scFv clone from phage display) VH: QVQLVQSGAEVKKPGASVKVSCKASGYTLSGYYMHWVRQAPGQGLEWMGWIDPNSGATNDAPKFQGRVTMTRDTSTSTVYMELSSLRSEDTAVYYCARGYDVDWFVYWGQGTLVTVSS VL: DIQMTQSPSSLSASVGDRVTITCSARSSVSYMYWYQQKPGKAPKLLIYRTSNLASGVPSRFSGSGSGTDFTLTISSLQPEDFATYYCQQYHSYPPTFGGGTKVEIK",0.00414,0.000343
"suPAR_DB04_E12 (scFv, V domains shown, scFv clone from phage display) VH: QVQLVQSGAEVKKPGASVKVSCKASGYTFTTYYMHWVRQAPGQGLEWMGWIDPENGSTIYDQKFQGRVTMTRDTSTSTVYMELSSLRSEDTAVYYCARGYDVDWFVYWGQGTLVTVSS VL: DIQMTQSPSSLSASVGDRVTITCSASQSVSYMYWYQQKPGKAPKLLIYRTSNLASGVPSRFSGSGSGTDFTLTISSLQPEDFATYYCQQYHSYPPTFGGGTKVEIK",0.00336,8.15e-05
"suPAR_DB04_D04 (scFv, V domains shown, scFv clone from phage display) VH: QVQLVQSGAEVKKPGASVKVSCKASGYTIKDYYMHWVRQAPGQGLEWMGWIDHENGSTIYAQKFQGRVTMTRDTSTSTVYMELSSLRSEDTAVYYCARGYDVDWFVYWGQGTLVTVSS VL: DIQMTQSPSSLSASVGDRVTITCSARSSVSYMYWYQQKPGKAPKLLIYRTSNLASGVPSRFSGSGSGTDFTLTISSLQPEDFATYYCQQYHSYPPTFGGGTKVEIK",0.00188,0.000184
"suPAR_DB04_D10 (scFv, V domains shown, scFv clone from phage display) VH: QVQLVQSGAEVKKPGASVKVSCKASGYTFTSYYMHWVRQAPGQGLEWMGWIDPEGGNTSYDQKFQGRVTMTRDTSTSTVYMELSSLRSEDTAVYYCATGYDVDWFVYWGQGTLVTVSS VL: DIQMTQSPSSLSASVGDRVTITCSARSSVSYMYWYQQKPGKAPKLLIYRTSNLASGVPSRFSGSGSGTDFTLTISSLQPEDFATYYCQQYHSYPPTFGGGTKVEIK",0.005,0.000402
"suPAR_DB04_E11 (scFv, V domains shown, scFv clone from phage display) VH: QVQLVQSGAEVKKPGASVKVSCKASGYTFTNYYVHWVRQAPGQGLEWMGWIDHENGNTIYDQKFQGRVTMTRDTSTSTVYMELSSLRSEDTAVYYCARGYDVDWFVYWGQGTLVTVSS VL: DIQMTQSPSSLSASVGDRVTITCSARQSVSYMYWYQQKPGKAPKLLIYRTSNLASGVPSRFSGSGSGTDFTLTISSLQPEDFATYYCQQYHSYPPTFGGGTKVEIK",0.00502,0.000158
"suPAR_DB04_D05 (scFv, V domains shown, scFv clone from phage display) VH: QVQLVQSGAEVKKPGASVKVSCKASGYTFTTYYMHWVRQAPGQGLEWVGWIDPHSGGTNYAQKFQGRVTMTRDTSTSTVYMELSSLRSEDTAVYYCARGYDVDWFVYWGQGTLVTVSS VL: DIQMTQSPSSLSASVGDRVTITCSARSSVSYMYWYQQKPGKAPKLLIYRTSNLASGVPSRFSGSGSGTDFTLTISSLQPEDFATYYCQQYHSYPPTFGGGTKVEIK",0.004,5.44e-05
"suPAR_DB04_E08 (scFv, V domains shown, scFv clone from phage display) VH: QVQLVQSGAEVKKPGASVKVSCKASGYTFTGYYMHWVRQAPGQGLEWMGWIDHENGNTSYAQKFQGRVTMTRDTSTSTVYMELSSLRSEDTAVYYCARGYDVDWFVYWGQGTLVTVSS VL: DIQMTQSPSSLSASVGDRVTITCSARSSVSYMYWYQQKPGKAPKLLIYRTSNLASGVPSRFSGSGSGTDFTLTISSLQPEDFATYYCQQYHSYPPTFGGGTKVEIK",0.00268,0.000149
"suPAR_DB04_E09 (scFv, V domains shown, scFv clone from phage display) VH: QVQLVQSGAEVKKPGASVKVSCKASGDTFTDYYIHWVRQAPGQGLEWMGWIDHENGSTSYDQKFQGRVTMTRDTSTSTVYMELSSLRSEDTAVYYCARGYDVDWFVYWGQGTLVTVSS VL: DIQMTQSPSSLSASVGDRVTITCRARQSVSYMYWYQQKPGKAPKLLIYRTSNLASGVPSRFSGSGSGTDFTLTISSLQPEDFATYYCQQYHSYPPTFGGGTKVEIK",0.00598,0.000446
"suPAR_DB04_E03 (scFv, V domains shown, scFv clone from phage display) VH: QVQLVQSGAEVKKPGASVKVSCKASGYTFTNYYMHWVRQAPGQGLEWMGWIDHEGGSTIYAQKFQGRVTMTRDTSTSTVYMELSSLRSEDTAVYYCARGYDVDWFVYWGQGTLVTVSS VL: DIQMTQSPSSLSASVGDRVTITCSARSSVSYMYWYQQKPGKAPKLLIYRTSNLASGVPSRFSGSGSGTDFTLTISSLQPEDFATYYCQQYHSYPPTFGGGTKVEIK",0.00116,0.000224
"suPAR_DB04_F03 (scFv, V domains shown, scFv clone from phage display) VH: QVQLVQSGAEVKKPGASVKVSCKASGYTIKDYYIHWVRQAPGQGLEWMGWIDPRSGDTNYGKNFQGRVTMTRDTSTSTVYMELSSLRSEDTAVYYCARGYDVDWFVYWGQGTLVTVSS VL: DIQMTQSPSSLSASVGDRVTITCSARSSVSYMYWYQQKPGKAPKLLIYRTSNLASGVPSRFSGSGSGTDFTLTISSLQPEDFATYYCQQYHSYPPTFGGGTKVEIK",0.00375,0.000863
"suPAR_DB04_E10 (scFv, V domains shown, scFv clone from phage display) VH: QVQLVQSGAEVKKPGASVKVSCKASGYTFSSYYFHWVRQAPGQGLEWMGWIDPNTGDTIYAQKFQGRVTMTRDTSTSTVYMELSSLRSEDTAVYYCARGYDVDWFVYWGQGTLVTVSS VL: DIQMTQSPSSLSASVGDRVTITCSARSSVSYMYWYQQKPGKAPKLLIYRTSNLASGVPSRFSGSGSGTDFTLTISSLQPEDFATYYCQQYHSYPPTFGGGTKVEIK",0.00116,0.000142
"suPAR_DB04_D07 (scFv, V domains shown, scFv clone from phage display) VH: QVQLVQSGAEVKKPGASVKVSCKASGYTFGSYYMHWVRQAPGQGLEWMGWIDHENGNTIYDQKFQGRVTMTRDTSTSTVYMELSSLRSEDTAVYYCARGYDVDWFVYWGQGTLVTVSS VL: DIQMTQSPSSLSASVGDRVTITCRARQSVSYMYWYQQKPGKAPKLLIYRTSNLASGVPSRFSGSGSGTDFTLTISSLQPEDFATYYCQQYHSYPPTFGGGTKVEIK",0.00217,0.000436
"suPAR_DB04_F01 (scFv, V domains shown, scFv clone from phage display) VH: QVQLVQSGAEVKKPGASVKVSCKASGYTFTSYYMHWVRQAPGQGLEWMGWIDHEGGNTIYAQKFQGRVTMTRDTSTSTVYMELSSLRSEDTAVYYCARGDDVDWFVYWGQGTLVTVSS VL: DIQMTQSPSSLSASVGDRVTITCSASQSVSYMYWYQQKPGKAPKLLIYRTSNLASGVPSRFSGSGSGTDFTLTISSLQPEDFATYYCQQYHSYPPTFGGGTKVEIK",0.00267,4.88e-07
"suPAR_DB04_E04 (scFv, V domains shown, scFv clone from phage display) VH: QVQLVQSGAEVKKPGASVKVSCKASGYTFTSYYVHWVRQAPGQGLEWMGWIDHENGNTIYDQKFQGRVTMTRDTSTSTVYMELSSLRSEDTAVYYCARGTDVDWFVYWGQGTLVTVSS VL: DIQMTQSPSSLSASVGDRVTITCRARQSVSYMYWYQQKPGKAPKLLIYRTSNLASGVPSRFSGSGSGTDFTLTISSLQPEDFATYYCQQYHSYPPTFGGGTKVEIK",0.00335,0.000451
"suPAR_DB04_E06 (scFv, V domains shown, scFv clone from phage display) VH: QVQLVQSGAEVKKPGASVKVSCKASGYSFTSHYMHWVRQAPGQGLEWMGWIDHENGNTIYDQKFQGRVTMTRDTSTSTVYMELSSLRSEDTAVYYCARGYDVDWFVYWGQGTLVTVSS VL: DIQMTQSPSSLSASVGDRVTITCRARSSVSYMYWYQQKPGKAPKLLIYRTSNLASGVPSRFSGSGSGTDFTLTISSLQPEDFATYYCQQYHSYPPTFGGGTKVEIK",0.00564,0.000137
"suPAR_DB04_F04 (scFv, V domains shown, scFv clone from phage display) VH: QVQLVQSGAEVKKPGASVKVSCKASGYTFTSYYMHWVRQAPGQGLEWMGWIDHENGNTSYDQKFQGRVTMTRDTSTSTVYMELSSLRSEDTAVYYCARGYDVDWFVYWGQGTLVTVSS VL: DIQMTQSPSSLSASVGDRVTITCSARSSVSYMYWYQQKPGKAPKLLIYRTSNLASGVPSRFSGSGSGTDFTLTISSLQPEDFATYYCQQYHSYPPTFGGGTKVEIK",0.00394,0.000174
